Laboratory results from patent US20250339531A1, “DUX4 POLYPEPTIDES AND NUCLEIC ACIDS FOR TREATING INFLAMMATORY AND AUTOIMMUNE CONDITIONS” (Fred Hutchinson Cancer Center, priority 2021, published 2025).

Tested on: proteins that co-immunoprecipitated with DUX4-CTD constructs expressed in MB135 myoblasts
Assay: LC-MS of proteins co-immunoprecipitated with DUX4-CTD (Table 1) and western validation
Format: binding, human
Design: key to 4. mL1dL2 + Dox + IFNG / 4. + IFNG mix / 4. longCTD + Dox + IFNG / 3. + IFNg + Dox longCTD / 3. + Dox longCTD / 3. + IFNG longCTD: peptide-spectrum matches (PSMs) per protein
Conditions: kind of count not given; for 4. + IFNG mix: LC-MS value per protein co-immunoprecipitated from MB135 myoblasts, + IFNG mix sample (no Dox); for 4. mL1dL2 + Dox + IFNG: LC-MS value per protein co-immunoprecipitated with DUX4-CTD construct mL1dL2 in MB135 myoblasts
Description: As an unbiased method to identify proteins that interact with the C-terminal region of DUX4, liquid chromatography mass spectroscopy (LC-MS) was used to identify proteins that co-immunoprecipitated with DUX4-CTD constructs expressed in MB135 myoblasts. In the first experiment, MB135iDUX4-CTD cells were used, either untreated, treated with doxycycline alone, or with both doxycycline and IFNG. In the second experiment, MB135iDUX4-CTD and MB135iDUX4mL1dL2 cells were used, both treated with doxycycline and IFNG, compared to these two cell lines untreated and combined as a control. Proteins with a minimum of 2 peptide spectrum matches (PSMs) in at least one sample that were identified in both experiments were assigned to one of ten categories (see Methods) to separate candidate interactors from other categories that might be co-purified because of obligate interactions (e.g., proteasome or ribosome) or might be less likely to be physiologically relevant (e.g., cytoskeletal proteins). Candidate interactors were then ranked based on the total PSMs for that protein across all samples.
Centrifugation at 2500 rcf at 4° C. for 5 min pelleted the nuclei, supernatant was discarded, and nuclei resuspended in 1 mL IP buffer pH 7.4 (25 mM Tris-HCl pH 7.5, 175 mM NaCl, 1 mM EDTA, 0.2% NP-40, 5% glycerol) and incubated for 1 hour at 4° C. with rotation then spun at 21000 rcf for 10 minutes at 4° C. to pellet insoluble debris. Protein concentration was determined using the Pierce BCA Protein Assay Kit (ThermoFisher, 23225). An equivalent amount of protein per sample was pre-cleared with Dynabeads Protein G (Invitrogen) bound to mouse IgG (Abcam #131368) for 1 hour at 4° C. with rotation. FLAG-tagged constructs were then immunoprecipitated with Dynabeads Protein G beads coupled to mouse anti-FLAG M2 mAb (Sigma F3165) for 3 hours at 4° C. with rotation. Beads were washed 3× with 1 mL IP buffer and eluted by adding 2× NuPage LDS Sample Buffer (Thermo Fisher, diluted from 4× with PBS) to the beads and heating for 10 minutes at 70° C.
For LC-MS, anti-FLAG immunoprecipitation was performed with beads cross-linked to the anti-FLAG antibody and the proteins competitively eluted with FLAG peptide. Eluted protein samples were electrophoresed into a NuPage 4-12% Bis-Tris gel, excised, and processed by the Fred Hutchinson Cancer Research Center Proteomics Core. Samples were reduced, alkylated, digested with trypsin, desalted, and run on the Orbitrap Eclipse Tribid Mass Spectrometer (Thermo Fisher). Proteomics data were analyzed using Proteome Discoverer 2.4 against a Uniprot human database that included common contaminants using Sequest HT and Percolator for scoring. […] Proteins that were identified in at least one sample from both independent experiments with at least 2 PSMs in one sample were assigned to one of ten categories: 1, candidates; 2, cytoskeletal associated; 3, cytoskeletal; 4, ribosome/translation associated; 5, proteasome associated; 6, membrane or extracellular; ER, golgi, or vesicle associated; 8, lipid metabolism; 9, chaperones; 10, nuclear import or nuclear membrane associated. The proteins in category 1 were further investigated for interactions with DUX4.

B1: RRBP1 (protein)
chain: MDIYDTQTLGVVVFGGFMVVSAIGIFLVSTFSMKETSYEEALANQRKEMAKTHHQKVEKKKKEKTVEKKGKTKKKEEKPNGKIPDHDPAPNVTVLLREPVRAPAVAVAPTPVQPPIIVAPVATVPAMPQEKLASSPKDKKKKEKKVAKVEPAVSSVVNSIQVLTSKAAILETAPKEVPMVVVPPVGAKGNTPATGTTQGKKAEGTQNQSKKAEGAPNQGRKAEGTPNQGKKTEGTPNQGKKAEGTPNQGKKAEGTPNQGKKAEGAQNQGKKVDTTPNQGKKVEGAPTQGRKAEGAQNQAKKVEGAQNQGKKAEGAQNQGKKGEGAQNQGKKAEGAQNQGKKAEGAQNQGKKAEGAQNQGKKAEGAQNQGKKAEGAQNQGKKAEGAQNQGKKVEGAQNQGKKAEGAQNQGKKAEGAQNQGKKAEGAQNQGKKAEGAQNQGKKAEGAQNQGKKAEGAQNQGKKAEGAQNQGKKVEGAQNQGKKAEGAQNQGKKAEGAQNQGKKAEGAQNQGQKGEGAQNQGKKTEGAQGKKAERSPNQGKKGEGAPIQGKKADSVANQGTKVEGITNQGKKAEGSPSEGKKAEGSPNQGKKADAAANQGKKTESASVQGRNTDVAQSPEAPKQEAPAKKKSGSKKKGEPGPPDADGPLYLPYKTLVSTVGSMVFNEGEAQRLIEILSEKAGIIQDTWHKATQKGDPVAILKRQLEEKEKLLATEQEDAAVAKSKLRELNKEMAAEKAKAAAGEAKVKKQLVAREQEITAVQARMQASYREHVKEVQQLQGKIRTLQEQLENGPNTQLARLQQENSILRDALNQATSQVESKQNAELAKLRQELSKVSKELVEKSEAVRQDEQQRKALEAKAAAFEKQVLQLQASHRESEEALQKRLDEVSRELCHTQSSHASLRADAEKAQEQQQQMAELHSKLQSSEAEVRSKCEELSGLHGQLQEARAENSQLTERIRSIEALLEAGQARDAQDVQASQAEADQQQTRLKELESQVSGLEKEAIELREAVEQQKVKNNDLREKNWKAMEALATAEQACKEKLLSLTQAKEESEKQLCLIEAQTMEALLALLPELSVLAQQNYTEWLQDLKEKGPTLLKHPPAPAEPSSDLASKLREAEETQSTLQAECDQYRSILAETEGMLRDLQKSVEEEEQVWRAKVGAAEEELQKSRVTVKHLEEIVEKLKGELESSDQVREHTSHLEAELEKHMAAASAECQNYAKEVAGLRQLLLESQSQLDAAKSEAQKQSDELALVRQQLSEMKSHVEDGDIAGAPASSPEAPPAEQDPVQLKTQLEWTEAILEDEQTQRQKLTAEFEEAQTSACRLQEELEKLRTAGPLESSETEEASQLKERLEKEKKLTSDLGRAATRLQELLKTTQEQLAREKDTVKKLQEQLEKAEDGSSSKEGTSV
  4. + IFNG mix: 12
  4. mL1dL2 + Dox + IFNG: 4

B2: EEF1D (protein)
chain: MEAPLGSILSPCPGRAATGRAGTGRVGTGLRPPAVLQLCPLLAFYRCVRKMRSGKASCTLETVWEDKHKYEEAERRFYEHEATQAAASAQQLPAEGPAMNGPGQDDPEDADEAEAPDGGSRRDPRKSQDSRKPLQKKRKRSPKSGLGPADLALLGLSAERVWLDKSLFDQAESSYRQKLADVAAQAAWPPALAPWGLCTHGNQVACHHVTWGIWVNKSSFDQAERAFVEWSQALLLAPDGSRRQGTPNTGQQVAVPDLAHQPSPPVNGQPPLGSLQALVREVWLEKPRYDAAERGFYEALFDGHPPGKVRLQERAGLAEGARRGRRDRRGRNILGNKRAGLRRADGEAPSALPYCYFLQKDAEAPWLSKPAYDSAECRHHAAEALRVAWCLEAASLSHRPGPRSGLSVSSLRPNRKMATNFLAHEKIWFDKFKYDDAERRFYEQMNGPVAGASRQENGASVILRDIARARENIQKSLAGSSGPGASSGTSGDHGELVVRIASLEVENQSLRGVVQELQQAISKLEARLNVLEKSSPGHRATAPQTQHVSPMRQVEPPAKKPATPAEDDEDDDIDLFGSDNEEEDKEAAQLREERLRQYAEKKAKKPALVAKSSILLDVKPWDDETDMAQLEACVRSIQLDGLVWGASKLVPVGYGIRKLQIQCVVEDDKVGTDLLEEEITKFEEHVQSVDIAAFNKI
  4. mL1dL2 + Dox + IFNG: 7

B3: KRT71 (protein)
chain: MSRQFTCKSGAAAKGGFSGCSAVLSGGSSSSFRAGSKGLSGGFGSRSLYSLGGVRSLNVASGSGKSGGYGFGRGRASGFAGSMFGSVALGPVCPTVCPPGGIHQVTVNESLLAPLNVELDPEIQKVRAQEREQIKALNNKFASFIDKVRFLEQQNQVLETKWELLQQLDLNNCKNNLEPILEGYISNLRKQLETLSGDRVRLDSELRNVRDVVEDYKKRYEEEINKRTAAENEFVLLKKDVDAAYANKVELQAKVESMDQEIKFFRCLFEAEITQIQSHISDMSVILSMDNNRNLDLDSIIDEVRTQYEEIALKSKAEAEALYQTKFQELQLAAGRHGDDLKNTKNEISELTRLIQRIRSEIENVKKQASNLETAIADAEQRGDNALKDARAKLDELEGALHQAKEELARMLREYQELMSLKLALDMEIATYRKLLESEECRMSGEFPSPVSISIISSTSGGSVYGFRPSMVSGGYVANSSNCISGVCSVRGGEGRSRGSANDYKDTLGKGSSLSAPSKKTSR
  4. mL1dL2 + Dox + IFNG: 21

B4: HNRNPM (protein)
chain: AAGVEAAAEVAATEIKMEEESGAPGVPSGNGAPGPKGEGERPAQNEKRKEKNIKRGGNRFEPYANPTKRYRAFITNIPFDVKWQSLKDLVKEKVGEVTYVELLMDAEGKSRGCAVVEFKMEESMKKAAEVLNKHSLSGRPLKVKEDPDGEHARRAMQKVMATTGGMGMGPGGPGMITIPPSILNNPNIPNEIIHALQAGRLGSTVFVANLDYKVGWKKLKEVFSMAGVVVRADILEDKDGKSRGIGTVTFEQSIEAVQAISMFNGQLLFDRPMHVKMDERALPKGDFFPPERPQQLPHGLGGIGMGLGPGGQPIDANHLNKGIGMGNIGPAGMGMEGIGFGINKMGGMEGPFGGGMENMGRFGSGMNMGRINEILSNALKRGEIIAKQGGGGGGGSVPGIERMGPGIDRLGGAGMERMGAGLGHGMDRVGSEIERMGLVMDRMGSVERMGSGIERMGPLGLDHMASSIERMGQTMERIGSGVERMGAGMGFGLERMAAPIDRVGQTIERMGSGVERMGPAIERMGLSMERMVPAGMGAGLERMGPVMDRMATGLERMGANNLERMGLERMGANSLERMGLERMGANSLERMGPAMGPALGAGIERMGLAMGGGGGASFDRAIEMERGNFGGSFAGSFGGAGGHAPGVARKACQIFVRNLPFDFTWKMLKDKFNECGHVLYADIKMENGKSKGCGVVKFESPEVAERACRMMNGMKLSGREIDVRIDRNA
  4. mL1dL2 + Dox + IFNG: 3

B5: EEF1A1 (protein)
chain: GKEKTHINIVVIGHVDSGKSTTTGHLIYKCGGIDKRTIEKFEKEAAEMGKGSFKYAWVLDKLKAERERGITIDISLWKFETSKYYVTIIDAPGHRDFIKNMITGTSQADCAVLIVAAGVGEFEAGISKNGQTREHALLAYTLGVKQLIVGVNKMDSTEPPYSQKRYEEIVKEVSTYIKKIGYNPDTVAFVPISGWNGDNMLEPSANMPWFKGWKVTRKDGNASGTTLLEALDCILPPTRPTDKPLRLPLQDVYKIGGIGTVPVGRVETGVLKPGMVVTFAPVNVTTEVKSVEMHHEALSEALPGDNVGFNVKNVSVKDVRRGNVAGDSKNDPPMEAAGFTAQVIILNHPGQISAGYAPVLDCHTAHIACKFAELKEKIDRRSGKKLEDGPKFLKSGDAAIVDMVPGKPMCVESFSDYPPLGRFAVRDMRQTVAVGVIKAVDKKAAGAGKVTKSAQKAQKAK
  4. + IFNG mix: 4
  4. mL1dL2 + Dox + IFNG: 3

B6: MYL12A (protein)
chain: MDLTTTMSSKRTKTKTKKRPQRATSNVFAMFDQSQIQEFKEAFNMIDQNRDGFIDKEDLHDMLASLGKNPTDEYLDAMMNEAPGPINFTMFLTMFGEKLNGTDPEDVIRNAFACFDEEATGTIQEDYLRELLTTMGDRFTDEEVDELYREAPIDKKGNFNYIEFTRILKHGAKDKDD
  4. + IFNG mix: 9
  4. mL1dL2 + Dox + IFNG: 30
